Assay: label from the status in PepcDB records
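Further: failed if final PepcDB status was selected cloned or expressed and not failed if soluble or beyond.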

MALPLVSSVSYIKSSNQFHCSFSLRKEKFELSSFFIVLCSHFSYVDTAERLELDRLLLWSSHQKIRFSKRTFSQRIVVKMSASTLPMNLGKAKKVWIWTMCKEVMTVAVERGWNTFIFSSDNRKLSNEWSSIALMDTLFIEEKKVIDGTGNVVASVFEVSTPEELRSLNIENEQIENIVLDFLDWKSIPAENLVAALQGSEKTVFAVSNTPSEAKLFLEALEHGLGGIILKSEDVKAVLDLKEYFDKRNEESDTLSLTEATITRVQMVGMGDRVCVDLCSLMRPGEGLLVGSFARGLFLVHSECLESNYIESRPFRVNAGPVHAYVAVPGGKTCYLSELRTGREVIVVDQKGKQRTAVVGRVKIEKRPLIVVEAKLSTKEEETVYSIILQNAETVALVTPHQVNSSGRTAVPVTSLKPGDQVLIRLQGGARHTGIEIQEFIVEN
protein production: failed

MVFDAIVVTDLQGFIIDWNKGSETLYGYSKEQAIGQPVNMLHVPGDTEHITSEVISAVENQGKWTGEIRMLHKDGHIGWIESMCVPIYGENYQMVGALGINRDITKRKKELEHHHHHH
protein production: failed

MSASAPQAHGPAATGTVTTDVPARLDRLPWSRWHWMIVIGLGTVWILDGLEVTTVGNIAGRLSEDGSGLSITSAQVTGVAAALYVAGACAGALFFGWLTDRFGRKKLFMVTLVVYLSATALTALSFNSWWFFTFRFLTGFGIGGEYAAINSAIDELIPAKYRGRVDLIINGSYWLGAIGGALLSIVMLDTSIFPKDLGWRLTFALGVVLGLVILLVRRHVPESPRWQFIHGRGEDAEALVSSVEREIEQEKGEPLPRAESEITIEQRKSIGFGLIAKTVFGRYPKRAVLGLALFIGQAFLYNAITFGFGAILTTFYDVPTGGTGYYFAVIAAGNFIGPLLLGKLFDTVGRRIMIASTYLLSGLLLFGTAWLFDRGSLSAMTLTACWCAVLFFASAGASSAYLTVSEVFPMETRAMAIAFFYALGTAAGGISGPLVFADLTESGVVGDTVLAFQIGAGLMCAAGLVAAFLAVNAERRSLEDIAEPLSVAQTTAPAPASASGT
protein production: failed

MFFRSIRFSLTLWYAVTLAVILVLFSSFIYLVLSNQLNKGIDRELLTVAEAVASPTLEPFRHAAPSVFDQVLEDFIGTRLTGKHVQVLDGSGAVAASSKSMEELRIPLGKTALRRVQAGKVSYETRVNLDVYPVRTIVYPIMTDGRLDQIVLVGTSMRGPAETLEKVQLVFAVSIPLALILWSLGGWFLAGRALKPVDLITRSARKITAENLGLRLEVINPQDEIGRLATTFNDTLERLENAFNRIRQFTGDVSHELRTPLTILRGEAEVGLKWAKEPEEFRELLRSNLEEINRMSKIIETLLELSRVEGGVKLELADLDLSDLLAELVQQSRLIAPDKSLRIAFVGQEPVTILGDWLRLRQVFMNLLDNAVKYTPADGEISVVVDTTGDSARVAIIDSGPGIPPEDLPHIFERFYRVDKARNRADGGCGLGLSLVKTFVEAHGGRIEVVSEAGKGSIFTVLLPRVVAG
protein production: not failed

PRKASRKPPREESSATCVLEQPGALGAQILLVQRPNSGLLAGLWEFPSVTWEPSEQLQRKALLQELQRWAGPLPATHLRHLGEVVHTFSHIKLTYQVYGLALEGQTPVTTVPPGARWLTQEEFHTAAVSTAMKKVFRVYQGQ
protein production: not failed

MKATFQVPSITCNHCVDKIEKFVGEIEGVSFIDVSVEKKSVVVEFDAPATQDLIKEALLDAGQEVV
protein production: failed

MSNYNVSLVGPAPWGFRLQGGKDFNMPLTISSLKDGGKASQAHVRIGDVVLSIDGISAQGMTHLEAQNKIKACTGSLNMTLQRASAAAKSEPVAVQKGEPKEVVKPVPITSPAVSKVTSTTNMAYNKVPRPFGSVSSPKVTSIPSPSSAFTPAHAATSSHASPPPVAAVTPPPLSASGLHASANPSAAQCSSPPNTGKPAVHVPRQPTVTSVCSESAQELAEGQRRGSQGDIKQQNGPPRKHIVERNTEFYHIPTHSDASKKRLIEDTEDWRPRTGTTQSRSFRILAQITGTEHLKESENDNAKKANSTPEPSQQSASPLSAAESLESPGSNRPVVAGLRSAAAFKPVGSTSVKSPSWQRPNQAAPSTGRISNSASSSGTGAPMKPAVGPPQPSDQDTLVQRAEHIPAGKRTPMCAHCNQAIRGPFLVALGKSWHPEEFNCAHCKNTMAYIGFVEEKGALYCELCYEKFFAPECGRCQRKILGEVINALKQTWHVSCFVCVACGKPIRNNVFHLEDGEPYCETDYYALFGTICRGCEFPIEAGDMFLEALGSTWHDTCFVCSVCCESLEGQTFFSKKDKPLCKKHAHSVNF
protein production: failed

MAMVSGRRSTLNPDAPLFIPAAVRQVEDFSPEWWQLVTTSTWYPDYWISQQQQGADGFYDNGENENGGGHIDVADLLPESFDFDDMEDFFDTDAAEFDQGFDGRMYYQAPSEFGFGKNGEMVKKSSGNRSPRSIVEPAKYAEKPAKWGNQRVAAAPRNIHQPR
protein production: failed

MKFAIITDVHGNFDALQTVLDDIDNREDIDKIYNLGDNIGIGHETNKVLDTIFDRDDMEIIAGNHDEAVMSLVNNTPYPEDLKDKFYEHHQWIESHMDEDYYDQLNLLPRYIEKTICGKKLLFIHYEIENQKLETGIEGQPFSPITENSKENIIELFKDKDADLIAFGHNHQMHLYDDNKTIYFNPGAVGLNNGANAVYGIVTINDNEFSIERIKLPYDNEEYLQGFDEKQVPAKQLIFEHFL
protein production: failed

MQRAAVFDVDGTLVDTNHLHVTTWWEAFRQAGHRVPMHAVHRAVGLASGDLVARLLGEDRDKEQDAELSAAHKALYGQYFDRLPALPGAGDLLRRLAADGWTVVLATSAGGSELGALRRAIDADDAIEATASADDVDAGKPAPEPVEHALELAGVPAERAVFVGDTVWDMRAGSRAGVRCVGVLCGGLPRADLEEAGAEAVYADPADLLASLRGSPLA
protein production: failed

MAEQEDIILEKPEDGLNQPRLDESLEGFKGQEGQAPEDEEFASLPEELPQENSESGFKFTRESAPEDVSTFEEVESQEPTPWYKDRKFMSLVGLSLGIICILVFTLFYLTFSEGKIKPDIIASKPLEQPVIMPDESYKYNDMQRIDGMIQKANALYLKGEVEQALKVYEQVAVYNESLSNYNLGVSQMNENKFQEAFESFKKAIANGENQSVAAINAAVCALKLNDKEKFRYYIDLAQVYLPKEGKSKLYDYYLSLINYYKGYYPEALQMLQRTDVEPYSDVAKYLSAKIYAKMDFDSKAIQQLNSQGNFESSLSLGLLYARIGEYAKAKVALSTAMKIERDFNQSLAALTLVDIKTGNYQDMLARLQNSYDNDKDRYKILDTYKIQVRLNKDLFNIAVAQNSFSKDLLKKQKDQFDLLFYFAPYQVFDSKQAALYIKKANVTDFVDDSTDAGIYLNISKALSSTNVKIANIINYALNQKLRLANQEFQKLIKDYPEHSILHYNLALTYAQMQNYELAYKHFSSSYHLNPKNYLAGAFAMFCAKLIDIDTTKLYNEILDNIAADSNFKANMQKSMLFLVNNNYISMLPYLDETKKDTPLSLIFEAIVAKNNNLNNQVDVKIAKLRSELPEDILANILYFNSLNSNLNIKEYAQNAQIHFKNLKLDYRSVFGGPNIAREFYVNLMHIAGLLNLERQKFKELINVSGAKDEGILQTLAYLDIFAQQYEEAYALYNSLIDDYGAKDTKTLFLAAVAAVGANNPNSAIALLQLSKLTDKNNKESKAALGMLYQEVKNYEAAISQYKTLPNNFKSEFFTFDINNN
protein production: failed

MSITYSAISFSGFSPKSVPFAIHSVTRRQFLNPNTFYRFGFSPSLQGSSIEFSLQLNSRVVLSKERRSLPLVVRNDRPQNEDLPKQYTRREKKPFPVPIVDLRRAARERVKNNKDKPKRPLPPPKNGMVVKSLVPLAYKVYNARIRLINNLHRLMKVVRVNACGWCNEIHVGPYGHPFKSCKGPNTSQRKGLHEWTNSVIEDVIVPLEAYHLFDRLGKRIRHDERFSIPRVPAVVELCIQGGVEIPEFPAKRRRKPIIRIGKSEFVDADETELPDPEPQPPPVPLLTELPVSEITPPSSEEETVSLAEETLQAWEEMRAGAKKLMRMYRVRVCGYCPEVHVGPTGHKAQNCGAFKHQQRNGQHGWQSAVLDDLIPPRYVWHVPDVNGPPMQRELRSFYGQAPAVVEICAQAGAVVPEHYRATMRLEVGIPSSVKEAEMVV
protein production: failed

MNIFTEAAKLEEQNCPFAMAQIVDSRGSTPRHSAQMLVRADGSIVGTIGGGMVERKVIEESLQALQERKPRLFHGRMARNGADAVGSDCGGAMSVFISVHGMRPRLVLIGAGHVNRAIAQSAALLGFDIAVADIYRESLNPELFPPSTTLLHAESFGAAVEALDIRPDNFVLIATNNQDREALDKLIEQPIAWLGLLASRRKVQLFLRQLREKGVAEEHIARLHAPVGYNIGAETPQEIAISVLAEILQVKNNAPGGLMMKPSHPSGHQLVVIRGAGDIASGVALRLYHAGFKVIMLEVEKPTVIRCTVAFAQAVFDGEMTVEGVTARLATSSAEAMKLTERGFIPVMVDPACSLLDELKPLCVVDAILAKQNLGTRADMAPVTIALGPGFTAGKDCHAVIETNRGHWLGQVIYSGCAQENTGVPGNIMGHTTRRVIRAPAAGIMRSNVKLGDLVKEGDVIAWIGEHEIKAPLTGMVRGLLNDGLAVVGGFKIGDIDPRGETADFTSVSDKARAIGGGVLEALMMLMHQGVKATKEVLEVALEHHHHHH
protein production: failed

MQPIELAELLTSQAAVLTSLVVIGLILCFIGYKIFRVYSAVIGLFIGQLVGIYITINYYENALIVILASAIVGALLFALIDELGLIVTGAAFGYFVGVYLLPEYQVYAFVLAALFALINLFIEKPLTVLITSVIGASAIALAVHMGITGTHIYDILNDPKKVFDAIFSNAYFDLLWFTLVLTGIITQYVTYKEEREEEE
protein production: failed

MNIRITNIQKQLHKYGIDGLLITKKENRQYATGFTGSAGVVLISADQAVFITDFRYVDQAKSQIQDAEIVMHKGNLEKEIAHQVSKLNIQKLGIEENNMTLQQYKNLQKYVHTEMIQVCEIIESIRIIKDTPEIETMKIAAHIADEAFHHILTFLKPGISENDVRDELEFFMRKKGATSSSFQIIVASGVRSSLPHGVASNKIIERSDIVTLDFGALYDGYCSDITRTVAIGEPSEEFKKIYNIVREALKRGTEAIKPGETAKRIDDITRNYITEHGYGQYFGHSTGHGLGLEIHEPLRLSQESKATLEEGMVVTVEPGIYIPNWGGCRIEDDIVITKDGYEVITKSNRELIVIPC
protein production: failed

MTLKLIGAGFGRTGTWSTFAALNRLGLPCYHMQEVIMNKANKGHLDFWRKVANSPPGSQHDWNRVFANYTATVDNPGCCVWKELLAAYPDAKVLLTLHPRGAEAWYESTIDTIYFTENVWQFKILEWLTPFGWKFGDMSRKLIWGRTLDGVMNDRAKAVARYNTYVEQVKAAVPPHKLLVYKVTEGWAPLCDFLGVALPNEPFPNLNDRETIKKIIRDIIKGSYIMLGLAIAAIVAVVAALWWWLG
protein production: failed

MNARSGDNVVLAILLSLLALVLFDMMGLIIKYLSPRYGAAELSAYRNFFGVFPSVIALWSSPGWHRAGRPWRIRQWRLGLMRGVYVTFAQFLFYYSLGKLAFATASTITYANAVFMTALAVPLLGERVGLMRWAAVLLGFAGVLLVMKPGSDSFTPDALAPLGAAFLYALTGVSARQMDSAVPSALINLYSVVAALVGALALALLSGGFTPLAQWSDLGWIAAMGGFGGTAVLCLVASYRMTEQSNLAPFSYFGIPIAFVAGWLVFDETPWADLFPGAFFIAGGGLMIVWRERIRSRAGRRISN
protein production: failed

MRLSRGVFLLLLLLALASPLMIVGCGGPSFLPAASLRDPSVDMAWPPAPNPARIRFLREISGPEQVKAEPGAIARFLEFVTGEQFKHVPFVTPYGVVSDGGTLLFVSDSSSGVVHRIDLARQKVSYIVRAGDEFLSSPVGLALSPSGDLYVSDSVNAKVYVFSRDGEFLRVLADGQVDFKRPAGLAVNSKGVLFVVDVLAHKLKVFNVSGRFLGDFPPDDIGGKLNLPSHVAVDKDDKVYVTDALNFTVKVYDSARRYLRSIGEIGDAPGSFARPRGVAVDSDLNVYVIDAAFDNFQIFNQEGQLLLFVGKPGKKSGEFYMPSGIHIDRNDRIFISDSYNRRVQVFEYLKEENR
protein production: failed

METESIKLDVQVTTTSQDPSLGLLSTVIITLDRDLEEYDENVDSIKSLGSYPDSSTPDESLIILKLPTSEPDYIYLTLRSKLKDHLHDHVLSEEIADQIFEAQLGTQSIDQFPFQQPLFMLVSVKLTQKLYTYAPCNASPLATDLTKRAK
protein production: failed

Source: a protein production outcome set (Wang et al. 2014)
